According to the supplement of paper PMC10724198:
± gives the standard deviation of the averaged measurements.

System: Saccharomyces cerevisiae
Assay: protein stability index of tFT-peptide fusion (C-terminal peptide) (PSI (0-1 scale)); higher = more stable (slower turnover)
Details: genetic background: wild type; temperature: 30 C
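Note: PSI is a weighted mean of sequencing reads over stability bins, variants kept only with over 10 reads, mCherry proximal and sfGFP distal, peptide attached via GGGS linker.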

Row | Sequence | protein stability index
1 | MRSRWFAREFGK | 0.659 ± 0.07
2 | MSCLSDFPVCFL | 0.726 ± 0.037
3 | MSGVWLWVGGGG | 0.73 ± 0.078
4 | MSVRGGEGVVGE | 0.614 ± 0.025
5 | MSWLGLGLWSVF | 0.808 ± 0.069
6 | MVLTVIHFDCDI | 0.596 ± 0.014
7 | MVTGELVQLLLV | 0.528 ± 0.0048
8 | MWVGLWSVGLCG | 0.717 ± 0.011
9 | MYAWPISPRPLL | 0.738 ± 0.052
10 | MYTNYLYDVAVE | 0.597 ± 0.044
11 | NARPSPRSHSLE | 0.6921 ± 0.0065
12 | NDGLKVLKETSP | 0.675 ± 0.027
13 | NDKPKKKYRKTR | 0.64 ± 0.018
14 | NEVDSRGWTTLA | 0.59 ± 0.021
15 | NFAIYPTLYKYD | 0.667 ± 0.016
16 | NFDNGAGLNRGG | 0.6733 ± 0.0059
17 | NFEVHRCGISLR | 0.681 ± 0.0075
18 | NGDRGQWGMNQR | 0.708 ± 0.028
19 | NGLLRPALVPNY | 0.693 ± 0.012
20 | NGLRILICNTTP | 0.697 ± 0.03
21 | NGPYKAGSIVLI | 0.664 ± 0.027
22 | NGRENVHEWQRG | 0.711 ± 0.018
23 | NGRTSRVMKDRK | 0.6793 ± 0.0035
24 | NGSLRVVSGGFC | 0.63 ± 0.048
25 | NGSPFFFNRLFT | 0.702 ± 0.033
26 | NGTGGGSSLAFG | 0.644 ± 0.019

Row | Sequence | protein stability index
27 | NGWGKWTKTVCQ | 0.646 ± 0.02
28 | NHIASQASRRGR | 0.637 ± 0.069
29 | NHPCPFSELPQL | 0.758 ± 0.11
30 | NIKHTDKPNHIN | 0.609 ± 0.011
31 | NIKKKINNTVKN | 0.666 ± 0.0073
32 | NIMSSFFLTFHR | 0.719 ± 0.017
33 | NINYETNKQTDR | 0.668 ± 0.022
34 | NISSFKHVLAYK | 0.624 ± 0.06
35 | NKIVKYSKIRYK | 0.678 ± 0.018
36 | NKKKKENTKKRK | 0.721 ± 0.18
37 | NKKKKKKRKRVK | 0.701 ± 0.049
38 | NKKKKKKRNGAP | 0.658 ± 0.028
39 | NKKKNKKKNKKK | 0.676 ± 0.032
40 | NKKKNLRYKHRI | 0.643 ± 0.1
41 | NKNDINRMVQVS | 0.6754 ± 0.0062
42 | NKNNCKLISEKF | 0.721 ± 0.026
43 | NKNNITKKRKKD | 0.749 ± 0.064
44 | NKNRKNQNKGKR | 0.743 ± 0.069
45 | NKQKKKKSTKRN | 0.704 ± 0.029
46 | NKVISETKKLDN | 0.64983 ± 0.00019
47 | NLAGLVREYSGY | 0.684 ± 0.011
48 | NLGRGYLVFRGM | 0.709 ± 0.062
49 | NLLPFLGPLPRS | 0.781 ± 0.067
50 | NLQKTRNRRTVE | 0.643 ± 0.011
51 | NNANDKKNKRKK | 0.664 ± 0.044
52 | NNEETIKQKNLQ | 0.702 ± 0.025

Row | Sequence | protein stability index
53 | NNRVVRGRKWGG | 0.682 ± 0.015
54 | NPFLHQSMGQLT | 0.724 ± 0.078
55 | NPGLGLSCPSPP | 0.701 ± 0.043
56 | NQERYKKIRSKQ | 0.714 ± 0.054
57 | NRAVTRKRKEEK | 0.664 ± 0.03
58 | NRGRIRARVNEA | 0.708 ± 0.07
59 | NRGTRQIIIKKK | 0.653 ± 0.038
60 | NRLPGNLKKKDN | 0.687 ± 0.019
61 | NRLRNAGEPTND | 0.782 ± 0.069
62 | NRYKINHRIKCK | 0.576 ± 0.032
63 | NRYRILDKLRRK | 0.6618 ± 0.0026
64 | NSHRYDSNIPDS | 0.685 ± 0.057
65 | NSLGRRRSYPTL | 0.839 ± 0.039
66 | NSLLSFLPDPFH | 0.749 ± 0.0096
67 | NSRASHPTNQII | 0.789 ± 0.054
68 | NSSKHAWAWPVP | 0.68 ± 0.029
69 | NSYVGSSTYVIV | 0.692 ± 0.033
70 | NTNNKKNSKHSN | 0.661 ± 0.02
71 | NTQPSNRTQRKY | 0.669 ± 0.1
72 | NTTQKKKGGRKA | 0.747 ± 0.15
73 | NVIGGGRSAGLV | 0.609 ± 0.053
74 | NVKIDNKQRKNK | 0.746 ± 0.019
75 | NVNAVAVILGAC | 0.562 ± 0.0061
76 | NVRKWSREDQTG | 0.6679 ± 0.00079
77 | NWARLGVRMGAA | 0.66 ± 0.013
78 | NWKNENGRELEE | 0.7 ± 0.029

Row | Sequence | protein stability index
79 | NYLPLCCSMLAG | 0.588 ± 0.015
80 | PAAIARNPLPHR | 0.605 ± 0.075
81 | PAALPHTPSAPY | 0.666 ± 0.04
82 | PAASHPPRWPRR | 0.75 ± 0.049
83 | PACFESCGLWGF | 0.75 ± 0.039
84 | PACSFPPPPFSA | 0.703 ± 0.1
85 | PACSPLLAARVT | 0.711 ± 0.061
86 | PADAPPPTRPEA | 0.724 ± 0.032
87 | PAFVPPFTPATP | 0.76 ± 0.033
88 | PAGLITRSWNLV | 0.565 ± 0.028
89 | PALRTTRCLPLP | 0.703 ± 0.019
90 | PAPCPLFVPSPT | 0.655 ± 0.012
91 | PAPLLPLSPPRP | 0.709 ± 0.042
92 | PAPLPADTFVEC | 0.668 ± 0.065
93 | PAPLPPRPTSLP | 0.711 ± 0.011
94 | PAPPPPLLPRSL | 0.727 ± 0.011
95 | PAPPPPPPPPLH | 0.701 ± 0.083
96 | PAPPPPPTDTPP | 0.623 ± 0.0095
97 | PAPPPVLDTPLP | 0.6018 ± 0.0057
98 | PAPRPLSPPPTF | 0.699 ± 0.0091
99 | PARCRPSSPAPL | 0.726 ± 0.016
100 | PARLLIEFPSYS | 0.684 ± 0.021
101 | PARPIPFPQPCY | 0.538 ± 0.032
